Reference: the supplement of paper PMC11246515
± gives the standard deviation of the averaged measurements.

Experiment: total protein half-life in vivo (active degradation + dilution); higher = more stable protein
[1] = E. coli NCM3722 delta-clpP delta-lon delta-hslV, growth: N-lim chemostat, doubling time 6 h
[2] = E. coli NCM3722 delta-lon, growth: N-lim chemostat, doubling time 6 h
[3] = E. coli NCM3722 delta-smpB, growth: N-lim chemostat, doubling time 6 h
[4] = wild type E. coli NCM3722, growth: C-lim chemostat, doubling time 3 h
[5] = wild type E. coli NCM3722, growth: C-lim chemostat, doubling time 6 h
[6] = wild type E. coli NCM3722, growth: C-lim chemostat, doubling time 12 h
[7] = wild type E. coli NCM3722, growth: N-lim chemostat, doubling time 6 h
[8] = wild type E. coli NCM3722, growth: N-lim chemostat, doubling time 12 h
[9] = wild type E. coli NCM3722, growth: P-lim chemostat, doubling time 6 h
[10] = wild type E. coli NCM3722, growth: P-lim chemostat, doubling time 12 h
[11] = E. coli NCM3722 delta-hslV, growth: N-lim chemostat, doubling time 6 h
[12] = E. coli NCM3722 delta-clpP, growth: N-lim chemostat, doubling time 6 h

Sequence | total protein half-life in vivo [1] [h] | total protein half-life in vivo [2] [h] | total protein half-life in vivo [3] [h] | total protein half-life in vivo [4] [h] | total protein half-life in vivo [5] [h] | total protein half-life in vivo [6] [h] | total protein half-life in vivo [7] [h] | total protein half-life in vivo [8] [h] | total protein half-life in vivo [9] [h] | total protein half-life in vivo [10] [h] | total protein half-life in vivo [11] [h] | total protein half-life in vivo [12] [h]
MAILGLGTDIVEIARIEAVIARSGDRLARRVLSDNEWAIWKTHHQPVRFLAKRFAVKEAAAKAFGTGIRNGLAFNQFEVFNDELGKPRLRLWGEALKLAEKLGVANMHVTLADERHYACATVIIES | 5.28 ± 0.087 | 5.71 ± 0.46 | 5.093 ± 0.018 | 2.85 ± 0.081 | 5.87 ± 0.26 | 12.9 ± 2.6 | 5.35 ± 0.61 | 11.2 ± 1.1 | 5.72 ± 0.41 | 11.5 ± 0.7 |  | 
MPVRAQRIQHVMQDTIINFYSTSDDYGDFSNFAAWPIKVDGKTWPTSEHYFQAQKFLDEKYREEIRRVSSPMVAARMGRDRSKPLRKNWESVKEQVMRKALRAKFEQHAELRALLLATAPAKLVEHTENDAYWGDGGHGKGKNRLGYLLMELREQLAIEK |  |  |  |  |  | 12.3 |  |  |  |  | 4.25 | 
MKNIRYIDKKDVENLIENKISDDVIIFLSGPTSQKTPLSVLRTKDIIAVNGSAQYLLSNNIVPFIYVLTDVRFLHQRRDDFYKFSQRSRYTIVNVDVYEHASKEDKLYILQNCLVLRSFYRREKGGFIKKIKFNILRQIHKELLISVPLSKKGRLVGFCKDISLGYCSCHTIAFAAIQIAYSLKYARIICSGLDLTGSCSRFYDENKNPMPSELSRDLFKILPFFRFMHDNVKDINIYNLSDDTAISYDVIPFIKLQDISAEESKDMTRKKMQYRTSTDSYAN | 5.01 ± 0.085 | 3.32 ± 0.14 | 3.714 ± 0.0057 | 1.67 ± 0.44 | 1.52 ± 0.34 | 1.73 ± 0.45 | 3.52 | 6.11 ± 0.77 | 1.84 ± 0.14 | 4.15 ± 0.71 |  | 4.65 ± 0.19
MKRYTPDFPEMMRLCEMNFSQLRRLLPRNDAPGETVSYQVANAQYRLTIVESTRYTTLVTIEQTAPAISYWSLPSMTVRLYHDAMVAEVCSSQQIFRFKARYDYPNKKLHQRDEKHQINQFLADWLRYCLAHGAMAIPVY [P0ADU7] | 6.32 ± 0.34 | 2.11 ± 0.32 | 2.25 ± 0.22 |  | 2.76 ± 0.49 |  | 2.03 | 2.84 | 3.67 ± 0.23 | 7.5 ± 0.71 | 1.79 | 5.73 ± 0.49
MRKQWLGICIAAGMLAACTSDDGQQQTVSVPQPAVCNGPIVEISGADPRFEPLNATANQDYQRDGKSYKIVQDPSRFSQAGLAAIYDAEPGSNLTASGEAFDPTQLTAAHPTLPIPSYARITNLANGRMIVVRINDRGPYGNDRVISLSRAAADRLNTSNNTKVRIDPIIVAQDGSLSGPGMACTTVAKQTYALPAPPDLSGGAGTSSVSGPQGDILPVSNSTLKSEDPTGAPVTSSGFLGAPTTLAPGVLEGSEPTPAPQPVVTAPSTTPATSPAMVTPQAVSQSASGNFMVQVGAVSDQARAQQYQQQLGQKFGVPGRVTQNGAVWRIQLGPFASKAEASTLQQRLQTEAQLQSFITTAQ | 5.56 ± 0.12 | 6.29 ± 0.38 | 5.65 ± 0.12 | 3.1 ± 0.15 | 5.89 ± 0.42 |  | 6.17 ± 0.07 | 13.4 ± 2.2 |  | 12.38 ± 0.038 | 6.5 ± 0.56 | 5.78 ± 0.37
MKKRIPTLLATMIATALYSQQGLAADLASQCMLGVPSYDRPLVQGDTNDLPVTINADHAKGDYPDDAVFTGSVDIMQGNSRLQADEVQLHQKEAPGQPEPVRTVDALGNVHYDDNQVILKGPKGWANLNTKDTNVWEGDYQMVGRQGRGKADLMKQRGENRYTILDNGSFTSCLPGSDTWSVVGSEIIHDREEQVAEIWNARFKVGPVPIFYSPYLQLPVGDKRRSGFLIPNAKYTTTNYFEFYLPYYWNIAPNMDATITPHYMHRRGNIMWENEFRYLSQAGAGLMELDYLPSDKVYEDEHPNDDSSRRWLFYWNHSGVMDQVWRFNVDYTKVSDPSYFNDFDNKYGSSTDGYATQKFSVGYAVQNFNATVSTKQFQVFSEQNTSSYSAEPQLDVNYYQNDVGPFDTRIYGQAVHFVNTRDDMPEATRVHLEPTINLPLSNNWGSINTEAKLLATHYQQTNLDWYNSRNTTKLDESVNRVMPQFKVDGKMVFERDMEMLAPGYTQTLEPRAQYLYVPYRDQSDIYNYDSSLLQSDYSGLFRDRTYGGLDRIASANQVTTGVTSRIYDDAAVERFNISVGQIYYFTESRTGDDNITWENDDKTGSLVWAGDTYWRISERWGLRGGIQYDTRLDNVATSNSSIEYRRDEDRLVQLNYRYASPEYIQATLPKYYSTAEQYKNGISQVGAVASWPIADRWSIVGAYYYDTNANKQADSMLGVQYSSCCYAIRVGYERKLNGWDNDKQHAVYDNAIGFNIELRGLSSNYGLGTQEMLRSNILPYQNTL | 6.76 ± 0.85 | 6.28 ± 0.42 | 6 ± 0.24 | 3.25 ± 0.27 | 6.269 ± 0.016 | 13.3 ± 0.19 | 6.7 ± 0.21 | 13 ± 0.44 | 6.34 ± 0.59 | 13.5 ± 0.86 | 6.39 ± 0.33 | 6.59 ± 0.56
MHLSTHPTSYPTRYQEIAAKLEQELRQHYRCGDYLPAEQQLAARFEVNRHTLRRAIDQLVEKGWVQRRQGVGVLVLMRPFDYPLNAQARFSQNLLDQGSHPTSEKLLSVLRPASGHVADALGITEGENVIHLRTLRRVNGVALCLIDHYFADLTLWPTLQRFDSGSLHDFLREQTGIALRRSQTRISARRAQAKECQRLEIPNMSPLLCVRTLNHRDGESSPAEYSVSLTRADMIEFTMEH |  |  |  |  | 6.73 |  |  |  | 0.458 ± 0.023 | 1.54 ± 0.86 |  | 
MSEKLQKVLARAGHGSRREIESIIEAGRVSVDGKIAKLGDRVEVTPGLKIRIDGHLISVRESAEQICRVLAYYKPEGELCTRNDPEGRPTVFDRLPKLRGARWIAVGRLDVNTCGLLLFTTDGELANRLMHPSREVEREYAVRVFGQVDDAKLRDLSRGVQLEDGPAAFKTIKFSGGEGINQWYNVTLTEGRNREVRRLWEAVGVQVSRLIRVRYGDIPLPKGLPRGGWTELDLAQTNYLRELVELPPETSSKVAVEKDRRRMKANQIRRAVKRHSQVSGGRRSGGRNNNG | 6.28 ± 0.59 | 5.92 ± 0.38 | 4.94 ± 0.081 | 2.92 ± 0.27 | 5.79 ± 0.66 | 10.4 ± 2.1 | 6.18 ± 1.5 | 9.66 ± 0.21 | 5.43 ± 0.43 | 10.6 ± 0.17 | 6.02 ± 0.61 | 5.65 ± 1.1
